Data on one substance can be found in US20200399394A1.

pKd: −log10 of the molar value.

The term pKd denotes the negative decadic logarithm of the Kd, by convention in mol/L.

The target of experiment [1] is human CD39 (ectonucleoside triphosphate diphosphohydrolase 1) (UniProt P49961). Briefly: ForteBio (BLI); IgG, monovalent. (In BLI a coated tip is dipped into the sample, and binding shifts an interference pattern.)
Experiment [2] shares this target. The experiment can be described thus: MSD equilibrium; Fab.

Regarding SRF399-C, the pKd in experiment [1] was 8.53; in experiment [2] it was 10.28.
